Experimental data: paper PMC4981545 (Cell reports, 2016)

Key:
Test in all cases: pull-down
[1] = target: T1, GST-tagged BPV-1 E2 (BE2), immobilized (bovine papillomavirus type 1 (BPV-1), UniProt P03122 1-410)
T1 sequence: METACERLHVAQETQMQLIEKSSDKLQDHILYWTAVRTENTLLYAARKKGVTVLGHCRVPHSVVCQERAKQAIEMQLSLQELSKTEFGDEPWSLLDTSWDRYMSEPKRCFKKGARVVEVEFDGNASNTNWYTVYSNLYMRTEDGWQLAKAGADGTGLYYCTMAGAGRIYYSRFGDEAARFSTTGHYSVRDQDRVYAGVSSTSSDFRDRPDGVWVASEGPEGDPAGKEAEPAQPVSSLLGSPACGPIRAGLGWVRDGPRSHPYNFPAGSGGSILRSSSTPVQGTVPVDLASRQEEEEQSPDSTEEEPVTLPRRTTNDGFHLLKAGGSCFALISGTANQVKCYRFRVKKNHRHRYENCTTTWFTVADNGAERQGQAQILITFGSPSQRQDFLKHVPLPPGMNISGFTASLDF

[2] = target: GST-tagged HPV-11 E2 (11E2), immobilized (HPV-11, UniProt P04015 1-367)
[3] = target: GST-tagged HPV-16 E2 (16E2), immobilized (HPV-16, UniProt P03120 1-365)
[4] = target: GST-tagged HPV-18 E2 (18E2), immobilized (HPV-18, UniProt P06790 1-365)
[5] = target: Sf9-PDID of BRD4 with S488 substituted to alanine (human, UniProt O60885 287-530, S488 to alanine)
[6] = target: Sf9-PDID of BRD4 with S492 substituted to alanine (human, UniProt O60885 287-530, S492 to alanine)
[7] = target: Sf9-PDID of BRD4 with S494 substituted to alanine (human, UniProt O60885 287-530, S494 to alanine)
[8] = target: Sf9-PDID of BRD4 with S498 substituted to alanine (human, UniProt O60885 287-530, S498 to alanine)
[9] = target: Sf9-PDID of BRD4 with S499 substituted to alanine (human, UniProt O60885 287-530, S499 to alanine)

Measured: binding result

Sequence of GST-tagged HPV-16 E2 (16E2), immobilized (P03120 whole entry): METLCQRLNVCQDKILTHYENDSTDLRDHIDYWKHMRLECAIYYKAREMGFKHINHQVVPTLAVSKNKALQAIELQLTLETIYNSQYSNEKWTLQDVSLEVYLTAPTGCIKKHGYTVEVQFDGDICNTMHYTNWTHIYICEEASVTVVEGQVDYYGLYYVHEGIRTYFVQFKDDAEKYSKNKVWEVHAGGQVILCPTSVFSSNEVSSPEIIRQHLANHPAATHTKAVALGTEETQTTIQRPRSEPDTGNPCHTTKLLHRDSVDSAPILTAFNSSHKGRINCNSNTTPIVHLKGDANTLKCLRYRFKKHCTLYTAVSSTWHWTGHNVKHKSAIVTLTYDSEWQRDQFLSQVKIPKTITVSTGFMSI
Sequence of GST-tagged HPV-11 E2 (11E2), immobilized (P04015 whole entry): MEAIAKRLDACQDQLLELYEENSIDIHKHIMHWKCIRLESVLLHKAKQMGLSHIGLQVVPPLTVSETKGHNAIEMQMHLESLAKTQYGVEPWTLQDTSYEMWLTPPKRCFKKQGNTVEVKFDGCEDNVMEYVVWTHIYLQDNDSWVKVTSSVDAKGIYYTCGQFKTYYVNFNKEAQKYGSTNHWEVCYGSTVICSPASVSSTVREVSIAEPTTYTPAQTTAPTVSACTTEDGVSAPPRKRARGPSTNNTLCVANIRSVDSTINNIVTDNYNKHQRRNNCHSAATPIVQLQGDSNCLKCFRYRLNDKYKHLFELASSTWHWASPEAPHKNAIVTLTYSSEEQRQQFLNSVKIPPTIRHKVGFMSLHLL
Sequence of GST-tagged HPV-18 E2 (18E2), immobilized (P06790 whole entry): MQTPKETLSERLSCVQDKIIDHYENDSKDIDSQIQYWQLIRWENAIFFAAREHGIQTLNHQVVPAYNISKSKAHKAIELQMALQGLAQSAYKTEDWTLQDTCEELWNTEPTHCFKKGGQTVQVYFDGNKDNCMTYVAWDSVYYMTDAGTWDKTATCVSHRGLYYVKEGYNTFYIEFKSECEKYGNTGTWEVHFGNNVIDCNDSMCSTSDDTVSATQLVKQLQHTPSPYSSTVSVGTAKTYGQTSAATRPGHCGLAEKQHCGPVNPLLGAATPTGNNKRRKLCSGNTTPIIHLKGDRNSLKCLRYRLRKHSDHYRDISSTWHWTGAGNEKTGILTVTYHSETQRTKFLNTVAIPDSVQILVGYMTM

B1: Sf9-BID of BRD4 (fragment 6) (domain or fragment, human, UniProt O60885 524-579, looked up)
chain: QLAALSQPQQNKPKKKEKDKKEKKKEKHKRKEEVEENKKSKAKEPPPKKTKKNNSS
binds: [1] | [2] | [3] | [4]

B2: Bac-expressed FLAG-tagged BID of BRD4 (aa 524–579, fragment c) (domain or fragment, human, UniProt O60885 524-579, looked up)
chain: QLAALSQPQQNKPKKKEKDKKEKKKEKHKRKEEVEENKKSKAKEPPPKKTKKNNSS
binds: [1] | [2] | [3] | [4]

B3: GST-BID of BRD4 (domain or fragment, human, UniProt O60885 524-579, looked up)
chain: QLAALSQPQQNKPKKKEKDKKEKKKEKHKRKEEVEENKKSKAKEPPPKKTKKNNSS
binds: [5] | [6] | [7] | [8] | [9]
